Assay results from article PMC10542344 (2023).
Read-outs that look alike come from different tables or passages of the source.

Key:
Assay in all cases: SPR
[1] = target: T1, human IL-17A (recombinant) (human, UniProt Q16552 24-155)
[2] = target: T1, human IL-17A (recombinant); remark: listed apart in the source
[3] = target: T1, human IL-17A (recombinant); remark: listed apart in the source

T1 sequence (Q16552 24-155): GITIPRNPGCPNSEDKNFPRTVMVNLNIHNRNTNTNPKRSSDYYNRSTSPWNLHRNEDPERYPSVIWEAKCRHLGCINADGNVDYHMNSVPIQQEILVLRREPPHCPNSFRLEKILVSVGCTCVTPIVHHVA

| Binder | koff [1] [s⁻¹] | Kd [2] [nM] | koff [3] [s⁻¹] |
| --- | --- | --- | --- |
| BDG11.007 (human IgG1) (antibody, V domains shown) VH: EVQLVQSGAEVKKPGESLKISCKGSGYSFTSYWIGWVRQMPGKGLEWMGIIYPSDSDTRYSPSFQGQVTISADKSISTAYLQWSSLKASDTAMYYCARYPNYGAFDIWGQGTMVTVSS VL: EIVLTQSPATLSLSPGERATLSCRASQSVWSYLAWYQQKPGQAPRLLIYDASNRATGIPARFSGSGSGTDFTLTISSLEPEDFAVYYCQQYFNWGWPFGQGTKLEIK | 0.0045 | 2.61 | – |
| BDG11.001 (clone 11.4C_11.001 as soluble human IgG1) (antibody, V domains shown) VH: EVQLVQSGAEVKKPGESLKISCKGSGYSFTSYWIGWVRQMPGKGLEWMGIIYPSDSDTRYSPSFQGQVTISADKSISTAYLQWSSLKASDTAMYYCARYPNYGAFDIWGQGTMVTVSS VL: EIVLTQSPATLSLSPGERATLSCRASQSVWSYLAWYQQKPGQAPRLLIYDASNRATGIPARFSGSGSGTDFTLTISSLEPEDFAVYYCQQYFYWGWPFGQGTKLEIK | – | – | 0.000634 |
| BDG11.006 (human IgG1) (antibody, V domains shown) VH: EVQLVQSGAEVKKPGESLKISCKGSGYSFTSYWIGWVRQMPGKGLEWMGIIYPSDSDTRYSPSFQGQVTISADKSISTAYLQWSSLKASDTAMYYCARYPNYGAFDIWGQGTMVTVSS VL: EIVLTQSPATLSLSPGERATLSCRASQSVWSYLAWYQQKPGQAPRLLIYDASNRATGIPARFSGSGSGTDFTLTISSLEPEDFAVYYCQQYFYNGWPFGQGTKLEIK | 0.0009 | 0.697 | – |
| BDG11.004 (human IgG1) (antibody, V domains shown) VH: EVQLVQSGAEVKKPGESLKISCKGSGYSFTSYWIGWVRQMPGKGLEWMGIIYPSDSDTRYSPSFQGQVTISADKSISTAYLQWSSLKASDTAMYYCARYPNYGAFDIWGQGTMVTVSS VL: EIVLTQSPATLSLSPGERATLSCRASQSVSSYLAWYQQKPGQAPRLLIYDASNRATGIPARFSGSGSGTDFTLTISSLEPEDFAVYYCQQYFYWGWPFGQGTKLEIK | 0.00221 | 8.69 | – |
| BDG11.003 (human IgG1) (antibody, V domains shown) VH: EVQLVQSGAEVKKPGESLKISCKGSGYSFTSYWIGWVRQMPGKGLEWMGIIYPSDSDTRYSPSFQGQVTISADKSISTAYLQWSSLKASDTAMYYCARYPNYGAFDIWGQGTMVTVSS VL: EIVLTQSPATLSLSPGERATLSCRASQSVFSYLAWYQQKPGQAPRLLIYDASNRATGIPARFSGSGSGTDFTLTISSLEPEDFAVYYCQQYFYWGWPFGQGTKLEIK | 0.000641 | 0.935 | – |
